From paper PMC5001930 (Biological psychiatry, 2016)
Values belong to the binder of their own block, whether it stands above or below them.

Target: MET receptor tyrosine kinase (mouse (endogenous in neocortical …, UniProt P16056 25-1379))
Test: co-IP

mean fold change (HGF/PBS) of binding: 1.35 fold
B1: GRM5 (receptor, UniProt Q3UVX5 19-1203, looked up)
chain: SAQSSERRVVAHMPGDIIIGALFSVHHQPTVDKVHERKCGAVREQYGIQRVEAMLHTLERINSDPTLLPNITLGCEIRDSCWHSAVALEQSIEFIRDSLISSEEEEGLVRCVDGSSSFRSKKPIVGVIGPGSSSVAIQVQNLLQLFNIPQIAYSATSMDLSDKTLFKYFMRVVPSDAQQARAMVDIVKRYNWTYVSAVHTEGNYGESGMEAFKDMSAKEGICIAHSYKIYSNAGEQSFDKLLKKLRSHLPKARVVACFCEGMTVRGLLMAMRRLGLAGEFLLLGSDGWADRYDVTDGYQREAVGGITIKLQSPDVKWFDDYYLKLRPETNLRNPWFQEFWQHRFQCRLEGFAQENSKYNKTCNSSLTLRTHHVQDSKMGFVINAIYSMAYGLHNMQMSLCPGYAGLCDAMKPIDGRKLLDSLMKTNFTGVSGDMILFDENGDSPGRYEIMNFKEMGKDYFDYINVGSWDNGELKMDDDEVWSKKNNIIRSVCSEPCEKGQIKVIRKGEVSCCWTCTPCKENEYVFDEYTCKACQLGSWPTDDLTGCDLIPVQYLRWGDPEPIAAVVFACLGLLATLFVTVIFIIYRDTPVVKSSSRELCYIILAGICLGYLCTFCLIAKPKQIYCYLQRIGIGLSPAMSYSALVTKTNRIARILAGSKKKICTKKPRFMSACAQLVIAFILICIQLGIIVALFIMEPPDIMHDYPSIREVYLICNTTNLGVVTPLGYNGLLILSCTFYAFKTRNVPANFNEAKYIAFTMYTTCIIWLAFVPIYFGSNYKIITMCFSVSLSATVALGCMFVPKVYIILAKPERNVRSAFTTSTVVRMHVGDGKSSSAASRSSSLVNLWKRRGSSGETLRYKDRRLAQHKSEIECFTPKGSMGNGGRATMSSSNGKSVTWAQNEKSTRGQHLWQRLSVHINKKENPNQTAVIKPFPKSTESRGQGAGAGGGSGPGAAGAGSAGCTATGGPEPPDAGPKALYDVAEAEERFPAAARPRSPSPISTLSHLAGSAGRTDDDAPSLHSETAARSSSSQGSLMEQISSVVTRFTANITELNSMMLSTAAAPGPPGTPICSSYLIPKEIQLPTTMTTFAEIQPLPAIEVTGGAQPATGPSPAQETPAGAEAAPGKPDLEELVALTPPSPFRDSVDSGSTTPNSPVSESALCIPSSPKYDTLIIRDYTQSSSSL

mean fold change (HGF/PBS) of binding: 0.95 fold
B2: NTRK3 (receptor)
chain: not shown

B3: SYNGAP1 (natural protein, UniProt F6SEU4 1-1340, looked up)
chain: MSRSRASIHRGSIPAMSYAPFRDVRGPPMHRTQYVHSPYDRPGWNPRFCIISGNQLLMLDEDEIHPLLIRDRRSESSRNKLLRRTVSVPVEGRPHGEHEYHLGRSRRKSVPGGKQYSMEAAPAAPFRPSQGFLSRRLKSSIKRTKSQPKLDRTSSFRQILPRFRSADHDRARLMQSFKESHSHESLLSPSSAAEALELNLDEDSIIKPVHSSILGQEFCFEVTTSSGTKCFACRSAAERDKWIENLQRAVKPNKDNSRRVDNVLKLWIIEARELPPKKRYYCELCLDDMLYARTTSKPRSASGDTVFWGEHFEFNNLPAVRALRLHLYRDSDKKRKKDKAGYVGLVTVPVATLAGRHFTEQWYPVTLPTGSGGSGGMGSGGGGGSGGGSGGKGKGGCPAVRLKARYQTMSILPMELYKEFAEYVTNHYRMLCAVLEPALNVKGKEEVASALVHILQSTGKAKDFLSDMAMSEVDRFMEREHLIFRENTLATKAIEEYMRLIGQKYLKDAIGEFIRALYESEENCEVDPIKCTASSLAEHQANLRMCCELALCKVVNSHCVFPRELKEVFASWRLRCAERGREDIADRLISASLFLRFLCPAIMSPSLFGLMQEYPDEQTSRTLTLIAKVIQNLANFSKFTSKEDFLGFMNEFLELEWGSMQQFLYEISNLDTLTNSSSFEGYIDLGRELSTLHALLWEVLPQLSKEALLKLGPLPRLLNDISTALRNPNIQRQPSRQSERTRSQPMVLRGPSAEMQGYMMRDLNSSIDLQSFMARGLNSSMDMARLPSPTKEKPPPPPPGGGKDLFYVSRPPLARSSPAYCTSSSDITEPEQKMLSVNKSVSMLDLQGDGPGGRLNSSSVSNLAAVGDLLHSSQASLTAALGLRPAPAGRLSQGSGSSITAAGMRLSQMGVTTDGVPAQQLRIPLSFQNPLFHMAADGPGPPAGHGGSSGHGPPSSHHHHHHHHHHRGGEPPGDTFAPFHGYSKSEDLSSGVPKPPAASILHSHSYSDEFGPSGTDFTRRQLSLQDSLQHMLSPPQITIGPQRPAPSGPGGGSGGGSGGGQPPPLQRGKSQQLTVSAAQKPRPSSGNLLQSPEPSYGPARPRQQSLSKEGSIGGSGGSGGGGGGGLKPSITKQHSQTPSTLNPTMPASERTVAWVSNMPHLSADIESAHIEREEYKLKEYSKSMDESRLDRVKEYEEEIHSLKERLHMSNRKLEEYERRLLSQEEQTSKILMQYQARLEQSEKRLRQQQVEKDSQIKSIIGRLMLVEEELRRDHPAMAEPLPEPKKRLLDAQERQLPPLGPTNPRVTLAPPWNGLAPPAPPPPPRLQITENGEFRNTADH
mean fold change (HGF/PBS) of binding: 0.63 fold
